Laboratory results taken from patent US20030027251.

Target: bacteriophage λ cII protein (UniProt P03042)

Row | Substance | fold induction of β-galactosidase (induced/uninduced), strain SYKD005; reference SYKD004 without plasmid ftsH: 21 [fold] | fold induction of β-galactosidase, strain SYKD005 | β-galactosidase level against arabinose used to induce FtsH, strain SYKD007 | fold induction of β-galactosidase (induced/uninduced), strain SYKD006; reference SYKD004 without plasmid ftsH: 21 [fold] | fold induction of β-galactosidase, strain SYKD006 | β-galactosidase level against arabinose used to induce FtsH(E415A), strain SYKD008
1 | E. coli FtsH | 10 | the fold induction of β-galactosidase was reduced to half when cII was induced with IPTG in the presence of FtsH | in SYKD007 the level of β-galactosidase appeared to be directly correlated to the amount of arabinose used for induction | – | – | –
2 | FtsH(E415A), protease-deficient mutant of FtsH | – | – | – | 26 | This reduction in the expression of lacZ was not observed in the presence of FtsH (E415A) | inducing the strain SYKD008 at different concentrations of arabinose did not have any effect on the levels of β-galactosidase being produced
